Measured values reported in patent publication US20120164140A1.

Legend:
Experiment in all cases: cell-based or functional assay
BMP-2 (unlabeled) = molecular target: T1, BMP-2 (unlabeled) (UniProt P12643)
T1 sequence (looked up): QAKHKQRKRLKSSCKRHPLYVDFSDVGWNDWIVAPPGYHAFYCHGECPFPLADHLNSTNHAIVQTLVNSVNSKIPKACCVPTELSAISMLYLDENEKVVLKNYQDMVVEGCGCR

BMP-6 = BMP-6 (UniProt P22004)
BMP-5 = BMP-5 (UniProt P22003)
BMP-4 (unlabeled) = molecular target: T2, BMP-4 (unlabeled) (UniProt P12644)
T2 sequence (looked up): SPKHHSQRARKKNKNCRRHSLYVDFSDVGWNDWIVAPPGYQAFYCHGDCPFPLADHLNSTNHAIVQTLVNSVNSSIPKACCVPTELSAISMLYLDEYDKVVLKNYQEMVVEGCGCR

Measured: decrease in hepcidin promoter activation (luciferase reporter, Hep3B cells)

Sequence of UniProt P22004 (P22004 382-513 limits assumed): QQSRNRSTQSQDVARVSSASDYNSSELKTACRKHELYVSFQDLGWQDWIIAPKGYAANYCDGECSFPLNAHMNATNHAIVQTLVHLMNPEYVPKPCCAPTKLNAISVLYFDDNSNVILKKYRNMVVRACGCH
Sequence of UniProt P22003 (P22003 317-454 limits assumed): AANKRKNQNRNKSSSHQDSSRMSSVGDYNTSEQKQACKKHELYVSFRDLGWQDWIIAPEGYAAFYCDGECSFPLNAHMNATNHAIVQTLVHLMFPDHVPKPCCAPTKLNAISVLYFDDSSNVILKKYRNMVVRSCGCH

purified soluble human hemojuvelin fused to the Fc portion of immunoglobulin (HJV.Fc) (Fc fusion)
> 90%: all assays above
